Assay results as given in the RNAGym collection of RNA variant scans (doi:10.1073/pnas.2313332121).
Fewer inactive variants are shown than the library holds.

B1: TPR 5TU (parent)
chain: GGAUCUUCUCGAUCUAACAAAAAAGACAAAUCUGCCACAAAGCUUGAGAGCAUCUUCGGAUGCAGAGGCGGCAGCCUUCGGUGGCGCGAUAGCGCCAACGUUCUCAACUAUGACACGCAAAACGCGUGCUCCGUUGAAUGGAGUUUAUCAUG

Variants of: B1
Test: polymerase ribozyme fitness, log enrichment relative to wild type (log ratio); higher = more active; in vitro selection for triplet polymerase activity
Method in brief: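 Streptavidin-bead capture of gel-excised extended constructs, followed by RT-PCR, closed a single triplicate in vitro selection round. That round began by annealing PCR-built, transcribed mutant libraries of each subunit of a heterodimeric triplet polymerase ribozyme with a biotinylated primer, the partner subunit and triplets, then incubating them frozen at −7 °C. After Illumina sequencing of inputs and outputs, genotypes needed ≥10 input reads and ≥1 read per output. Fitness is the base-2 logarithm of genotype enrichment over wild-type enrichment, using inverse-variance-weighted replicate averages.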

Variant	polymerase ribozyme fitness (log ratio)
GGAUCUUCUCGAUGUAACAAAAAAGACAAAUCUGCCACAAAGCUUGAGAGCAUCUUCGAAUGCAGAGGCGGCUGCCUUCGGUGGCGGGAUAGCGCCAACGUUCUCAACUAUGACACGCAAAACGCGUGCUCCGUUGAAUGGAGUUUAUCAUG [C14G G59A A73U C87G]	≤ -4.2
GGAUCUUCUCGAUGUAACAAAAAAGACAAAUCUGCCACAAAGCUUGAGAUCAUCUUCGGAUGCAGAGGCGGCAGCCUUCGGUGGCGCGAUAGCGUUAACGUUCUCAACUAUGACGCGCAAAACGCGUGCUCCGUUGAAUGGAGUUUAUCAUG [C14G G50U C95U C96U A115G]	-4.1
GGAUCUUCUCGAUGUAACAAAAAAGACAAAUCUGCCACAAAGCUUGAGAGCAUCUUCGGAUGCAGAGGCGGCAGCCUUCGGUUGCGCGAUAGCGCCAACGUUCUCAACUAUGACACGCAAAACGCGUGCUCCGUUGAAUGGAGUUUAUCAUG [C14G G83U]	-2.05
GGAUCUUCUCGAUGCAACAAAAAAGACAAAUCUGCCACAAAGCUUGAGAGUAUCUUCGGAUGCAGAGACGGCAGCCUUCGGUAGCGCGAGAGCGCCAACGUUCUCAACUAUGACACGCAAAACGCGUGCUCCGUUGAAUGGAGUUUAUGAUG [C14G U15C C51U G68A G83A U90G C149G]	≤ -4.2
GGAUCUUCUCGAUGUAACAAAAAAGACAAAUCUGCCACAAAGCUUGAGAGCAUCUUCGGAUGCAGAGGCGGCAGCCUUCGGUGACGCGAUAGCGCCAACGUUCUCAACUAUGACACGCAAAACGCGUGCUCCGUUGAAUGGAGUUUAUCAUG [C14G G84A]	-2.16
GGAUCUUCUCGAUGUAACAAAAAAGACAAAUCUGCCACAAAGCUUGAGACCAUCUUCGGAUGCAGGGGCGGCAGCCUUCGGUGGGGCGAUAGCGCCAACGUUCUCGACUAUGACACGCAAAACGCGUGCUCCGUUGAAUGGAGUUUAUCAUG [C14G G50C A66G C85G A106G]	≤ -4.2
GGAUCUUCUCGAUGUAACAAAAAAGACAAAUCUGCCACAAAGCUUGAGAGCAUCUUCGGAUGCAGAGGCGGCAGCCUUCGGUGGCGGGAUAGCGCCAACGUUCUCAGCUAUGACACGCAAAACGCGUGCUCCGUUGAAUGGAGUUUAUCAUG [C14G C87G A107G]	≤ -4.2
GGAUCUUCUCGAUGUAACAAAAAAGACAAAUCUGCCACAAAGCUUGAGAGCAUCUUCGAAUGCAGAGGCGGCAGCCUUCGGUGGCGUGAUAGCGCCAACGUUCUCAACUAUGACACGCAAAACGCGUGCUCCGUUGAAUGGAGUUUAUCAUG [C14G G59A C87U]	-3.82
GGAUCUUCUCGAUGUAACAAAAAAGACAAAUCUGCCACAAAGCUUGAGAGCAUCUUCGGAUGCAGAGGCGGCAGCCUUCGGUGGCGCCAUAGCGCCAACGUUCUCAACUAUGACACGCAAAACGCGUGCUCCGUUGUAUGGAGUUUAUCAUG [C14G G88C A137U]	≤ -4.2
GGAUCUUCUCGAUGUAACAAAAAAGACAAAUCUGCCACAAAGCUUGAGAGCAUCUUCGGAUGCAGAGGCGGCAGCCUUCGGUGGCGCGAUAUCGCCAACGUUCUCAACUAUGACACGCAAAACGCGUGCUCCGUUGAAUGGAGUUUAUCAUG [C14G G92U]	-2.61
GGAUCUUCUCGAUGUAACAAAAAAGACAAAUCUGCCACAAAGCUUGAGAGCAUCUUCGGAUGCAGAGGCGGCAGCCUUCGGUGGCGCUAUAGAGCCAACGUUCUCAACUAUGACAGGCAAAACGCGUGCUCCGUUGAAUGGAGAUUAUCAUG [C14G G88U C93A C116G U144A]	≤ -4.2
GGAUCUUCUCGAUGUAACAAAAAAGACAAAUCUGCCACAAAGCUUGAGAGCAUCUUCGGAUGCAGAGGCGGCAGCCUUCGGUGGGGCGAUAGCGCCAACGUUCUCAACUAUGACACGCAAAACGCGUGCUACGUUGAAUGGAGUUUAUCAUG [C14G C85G C131A]	≤ -4.2
GGAUCUUCUCGAUGUAACAAAAAAGACAAAUCUGCCACAAAGCUUGAGAGCAUCUUCGGAUGCAGAGGCGGCAGCCUUCGGUGGUGCGAUAGCGCUAACGUUCUCAACUAUGCCACGCAAAUCGCGUGCUCCGUUGAAUGGAAUUUAUCAUG [C14G C85U C96U A113C A122U G143A]	≤ -4.2
GGAUCUUCUCGAUGUAACAAAAAAGACAAAUCUGCCACAAAGCUUGAGAGCAUCUUCGGAUGCAGAGGCGGCAGCCUUCGGUGGCGCGAUAGAGCCAACGUUCUCAACUAUGACACGCAAAACGCGUGCUCCGUUGAAUGGAGUUUAUCAUG [C14G C93A]	-3.68
GGAUCUUCUCGAUGUAACAAAAAAGACAAAUCUGCCACAAAGCUUGAGAGCAUCUUCGGAUGCAUAUGCGGCAGCCUUCGGUGGCGCGAUAGCGCCAACGUUCUCAACUAUGACACGCAAAACGCGUGCUCCAUAGAAUGGAGUUUAUCAUG [C14G G65U G67U G133A U135A]	≤ -4.2
GGAUCUUCUCGAUGUAACAAAAAAGACAAAUCUGCCACAAAGCUUGAGAGCAUCUUCGGAUGCAGAGGCGGCAGCCUUCGGUGGCGCGAUAGCGCCAACGUUCUCAACUAUGACACGCAAAACGCGUGCUUCGUUGAAUGGAGUUUAUCAUG [C14G C131U]	-1.27
GGAUCUUCUCGAUGUAACAAAAAAGACAAAUCUGCCACAAAGCUUGAGAGCAUCUUCGGAUGCAGAGGCGGCAGCCUUCGGUGGCGCGAUAGCGCUAACGUUCUCAACUAUGACACGCAAAACGCGUGCUCCGUUGAAUGGAGUUUAUCAUG [C14G C96U]	-2.21
GGAUCUUCUCGAUGUAACAAAAAAGACAAAUCUGCCACAAAGCUUGAGAGCAUCUUCGGAUGCAGAGGCGGCAGCCUUCGGUGGCGCGAUAGCGCCAAGGUUCUCAACUAUGACACGCAAAACGCGUGCUCCGUUGAAUGGAGUUUAUCAUG [C14G C99G]	-3.32
GGAUCUUCUCGAUGUAACAAAAAAGACAAAUCUGCCACAAAGCUUGAGAGCAUCUUCGGAUGCAGAGGCGGCAGCGUUCGGUGGCGCGCUAGGGGCAACGUUCUCAACUAUGACACGCAAAACGCGGGCUCCGUUGAAUGGAGUUUAUCAGG [C14G C76G A89C C93G C95G U127G U151G]	≤ -4.2

Variant	polymerase ribozyme fitness (log ratio)
GGAUCUUCUCGAUGUAACAAAAAAGACAAAUCUGCCACAAAGCUUGAGAGCAUCUUCGGAUGCAGAGGCGGCAGCCUUCGGUGGCGUGAUAGCGCCAACGUUCUCAACUAUGACACGCAAAACGCGUGCUCCGUUGAAUGAAGUUUAUCAUG [C14G C87U G141A]	-2.56
GGAUCUUCUCGAUGUAACAAAAAAGACAAAUCUGCCACAAAGCUUGAGAGCAUCUUCGGAUGCAGAGGCGGCAGCCUUCGGUGGCGCGAUAGCGGGAACGUUCUCAACUAUGACACGCAAAACGCGUGCUCCGUUGAAUGGAGUUUAUCAUG [C14G C95G C96G]	-4.07
GGAUCUUCUCGAUGUAACAAAAAAGACAAAUCUGCCACAAAGCUUGAGAGCAUCUUCGGAUGCAGAGGCGGCAGCCUUCGGUGGCGCGAUAGCGUCAACGUUCUCAACUAUGACACGCAAAACGCGUGCUCCGUUGAAUGGAGUUUAUCAUG [C14G C95U]	-1.57
GGAUCUUCUCGAUGUAACAAAAAAGACAAAUCUGCCACAAAGCUUGAGAGCAUCUUCGGAUGCAGAGGCGGCAGCCUUCGGUGGCGCCAUAGCGCCAACGUUCUCAACUAUGACACGCAAAACGGGUGCUCCGUUGAAUGGAGUUUAUCAUG [C14G G88C C125G]	-4.08
GGAUCUUCUCGAUGUAACAAAAAAGACAAAUCUGCCACAAAGCUUGAGAGCAUCUUCGGAUGCAGAGGCGGCAGCCUUCGGUGGAGCGAUAGCGGCAACGUUUUCAACUAUGACACGCAAAACGCGUGCUCCGUUGAAUGGAGUUAAUCAUG [C14G C85A C95G C103U U146A]	≤ -4.2
GGAUCUUCUCGAUGUAACAAAAAAGACAAAUCUGCCACAAAGCUUGAGAGCAUCUUCGGAUGCAGAGGCGGCAGCCUUCGGUGGAGCGAUAGCGCCAACGUUCUCAACUAUGACAUGCAAACCGCGUGCUCCGUUGAAUGGAGUUUAUCAUG [C14G C85A C116U A122C]	≤ -4.2
GGAUCUUCUCGAUGUAACAAAAAAUACAAAUCUGCAACAAAGCUUGAGAGCAUCGUCGGAUGCACAGGCGGCAGUCUUCGGUGGCGCGAUAGCGCCAACGUUCUCAACUAUGACACGCAAAACGCGUGCUCCGUUGAAUGCAGUUUAUCAUG [C14G G25U C36A U55G G65C C75U G141C]	≤ -4.2
GGAUCUUCUCGAUGUAACAAAAAAGACAAAUCUGCCACAAAGCUUGAGAGCAUCUUCGGAUGCAGAGGCGGCAGCCUUCGGUGGUGCGAUAGCGCCAACGUUCUCAACUAUGACACGCAAAACGCGUGCUCCGUUGAAUGGAGUUUAUCAUG [C14G C85U]	-2.1
GGAUCUUCUCGAUGUAACAAAAAAGACAAAUCUGCCACAAAGCUUGAGAGCAUCUUCGGAUGCAGAGGCGGCAGCCUUCGGUGGCGCGAUAGCGCCAACGUUCUCAACUAUGACACGCAAAACGCGUGCUCCUUUGAAUGGAGUUUAUCAUG [C14G G133U]	≤ -4.2
GGAUCUUCUCGAUGUAACAAAAAAGACAAAUCUGCCACAAAGCUUGAGAGCAUCUUCGGAUGCAGAGGCGGCAGCCUUCGGUAGCGCGAUAGCGCUAACGUUCUCAACUGUGACACGCAAAACGCGUGCUCCGUUGAAUGGUGUUUAACAUG [C14G G83A C96U A110G A142U U148A]	≤ -4.2
GGAUCUUCUCGAUGUAACAAAAAAGACAAAUCUGCCACAAAGCUUGAGAGCAUCUUCGGAUGCAGAGGCGGCAGCCUUCGGUAGCGCGAGAUCGCCAACGUGCUAAACUAUGACACGUACAACGCGUGCUCCGUUGAAUGGAGUUGAUCAUG [C14G G83A U90G G92U U102G C105A C118U A120C U146G]	≤ -4.2
GGAUCUUCUCGAUGUAACAAAAAAGACAAAUCUGCCACAAAGCUUGAGAGCAUCUUCGGAUGCAGAGGCGGCAGUCUUCGGUGGCGCGAUAGCCCCAACGUUCUCAACUAUGACACGCAAAUCACGUGCUCCGUUGAAUGGAGUUUAUCAUG [C14G C75U G94C A122U G124A]	-3.86
GGAUCUUCUCGAUGUAACAAAAAAGACAAAUCUGCCACAAAGCUUGAGAGCAUCUUCGGAUGCAGAGGCGGCAGCCUUCGGUGGCGUGAUAGCGCCAACGUUCUCAACUAUGACACGCAAAACGCGUGCUCCGUUGAAUGGAGUUUAUAAUG [C14G C87U C149A]	≤ -4.2
GGAUCUUCUCGAUGUAACAAAAAAGACAAAUCUGCCACAAAGCUUGAGAGCAUCUUCGGAUGCAGAGGCGGCAGCCUUAGGUGGCGCGAUAGGGCAAACGUUCUCAACUAUGACACGCAAAACGCGUGCUCCGUUGAAUGGAGUUUAUCAUG [C14G C79A C93G C96A]	≤ -4.2
GGAUCUUCUCGAUGUAACAAAAAAGACAAAUCUGCCACAAAGCUUGAGAACAUCUUCCGAUGCAGAGGCGGCAGCCUUCGGCGGCGCGAUAGCGCCAACGUUCUCAACUAUGACACGCAAAACGCGUGCUCCGUUGAAUGCAGUUUAUCAUG [C14G G50A G58C U82C G141C]	-4.17
GGAUCUUCUCGAUGUAACAAAAAACACAAAUCUGCCACAAAGCUUGUGAACAUCUUCGGAUGCAGAGGCGGCAGCCUUCGGUGGCGCGAUAGAGCCAACGUACUCAACUAUGACACGCAAAACCCGUGCUCCGUUGAAUGGAGUUUAUCAUG [C14G G25C A47U G50A C93A U102A G124C]	≤ -4.2
GGAUCUUCUCGAUGUAACAAAAAAGACAAAUCUGCCACAAAGCUUGACGGCAACUUCGGAUGCAGAGGCGGCAGCCUUCGGUGGCGCGAUAUUGCCAACGUUCUCAUCUAUGACACGCAAAACGCGUGCUCCGUUGAAUGGAGUUUAUCAUG [C14G G48C A49G U53A G92U C93U A107U]	≤ -4.2
GGAUCUUCUCGAUGUAACAAAAAAGACAAAUCUGCCACAAAGCUUGAGAGCAUCUUCGGAUGCAGAGGCGGCAGCCUUCGGUGGCCCGAUAGCGCCAACGUUCUCAACUAUGACACGCAAAACGCGUGCUCCGUUGAAUGGAGUUUAUCAUG [C14G G86C]	≤ -4.2
GGAUCUUCUCGAUGUAACAAAAAAGACAAAUCUGCCACAAAGCUUGAGAGCAUCUUCGCAUGCAGAGGAGGCAGCCUUCGGUGGCGCGAUAGCGCCAACGUUCUCAACUAUGACACGCAAAACGCGUGCUCCGUUGAAUGGGGUUUAUCAUG [C14G G59C C69A A142G]	≤ -4.2
